In paper PMC6992785, “In cellulo crystallization of Trypanosoma brucei IMP dehydrogenase enables the identification of genuine co-factors” (Nature Communications, 2020):

Target: the molecule itself
Test: crystal structure; serial femtosecond crystallography (XFEL, LCLS CXI) at room temperature (291 K) on crystals grown in living Sf9 cells, isolated and kept in PBS; 2.80 Å; space group P4 21 2, two monomers in the asymmetric unit; native ATP and GMP bound

B1: Trypanosoma brucei inosine-5'-monophosphate dehydrogenase (enzyme, UniProt P50098 1-512, looked up)
chain: MENTNLRTKTLRDGTTAEELFSQDGLSFNDFIILPGFIDFDSSKVNVSGQFTKNILLHLPLVSSPMDTVTESSMARAMALMGGIGVIHNNCTVEQQARMVRSVKLYRNGFIMKPKSVSPDVPVSTIRNIKSEKGISGILVTEGGKYDGKLLGIVCTKDIDFVKDASAPVSQYMTRRENMTVERYPIKLEEAMDVLNRSRHGYLPVLNDKDEVVCLCSRRDAVRARDYPNSSLDRNGHLLCAAATSTREADKGRVAALSEAGIDVLVLDSSQGNTIYQVSFIRWVKKTYPHLEVVAGNVVTQDQAKNLIDAGADSLRIGMGSGSICITQEVLACGRPQATAIYKVARYAASRGVPCVADGGLRNVGDVCKALAVGANVAMLGSMIAGTSETPGEYFFKDGMRLKGYRGMGSIDAMLQGRESGKRYLSENETLQVAQGVAGAVLDKGSVLKLLAYIHKGLQQSAQDIGEVSFDAIREKVYEGQVLFNRRTLTAQSEGAVHSLHHYERKLFASKL
notes: Inosine-5'-monophosphate dehydrogenase of Trypanosoma brucei, full length, with its native C-terminal SKL motif (PTS1); Two monomers in the asymmetric unit; the octamer arises by crystal symmetry; also called TbIMPDH; IMPDH; source: Sf9 insect cells infected with recombinant baculovirus; crystallised in cellulo, crystals isolated by cell lysis (RIPA buffer), washed and stored in PBS; not shown: …
stoichiometry N: 8
